Data on 8 substances can be found in IntAct's records for PubMed 12074588.

The target of the experiment is nck1_human NCK1 (UniProt P16333).

On to “BDNF/NT-3 growth factors receptor (Rattus norvegicus (Rat)), Q63604 Y705F”, for which the “effect of a mutation on the interaction” value is “disrupting interaction strength”.
As for “BDNF/NT-3 growth factors receptor (Rattus norvegicus (Rat)), Q63604 Y816F”, the “effect of a mutation on the interaction” value is recorded as “with no effect”.
For “BDNF/NT-3 growth factors receptor (Rattus norvegicus (Rat)), Q63604 Y706F”, the “effect of a mutation on the interaction” value is “disrupting interaction strength”.
The same measure for “BDNF/NT-3 growth factors receptor (Rattus norvegicus (Rat)), Q63604 Y782F”: “disrupting interaction strength”.
The same measure for “BDNF/NT-3 growth factors receptor (Rattus norvegicus (Rat)), Q63604 Y515F”: “with no effect”; for “BDNF/NT-3 growth factors receptor (Rattus norvegicus (Rat)), Q63604 Y701F”: “with no effect”; for “BDNF/NT-3 growth factors receptor (Rattus norvegicus (Rat)), Q63604 K571F”: “disrupting interaction strength”.
The value for “BDNF/NT-3 growth factors receptor (Rattus norvegicus (Rat)), Q63604 Y726F” was “with no effect”.
